Measurements published in US20060239990A1, “Protein Arginine N-Methyltransferase 2 (PRMT-2)” (priority 2003, published 2006).

B1: PRMT2(1-95&219-433): internal deletion of amino acid 96-218, deleting the AdoMet binding domain (protein)
chain: MATSGDCPRSESQGEEPAECSEAGLLQEGVQPEEFVAIADYAATDETQLSFLRGEKILILRQTTADWWWGERAGCCGYIPANHVGKHVDEYDPEDFEFMIESILYARDAWLKEDGVIWPTMAALHLVPCSADKDYRSKVLFWDNAYEFNLSALKSLAVKEFFSKPKYNHILKPEDCLSEPCTILQLDMRTVQISDLETLRGELRFDIRKAGTLHGFTAWFSVHFQSLQEGQPPQVLSTGPFHPTTHWKQTLFMMDDPVPVHTGDVVTGSVVLQRNPVWRRHMSVALSWAVTSRQDPTSQKVGEKVFPIWR
B2: PRMT4: protein methyltransferase CARM1 (PRMT4) (protein)
chain: AAAAAAVGPGAGGAGSAVPGGAGPCATVSVFPGARLLTIGDANGEIQRHAEQQALRLEVRAGPDSAGIALYSHEDVCVFKCSVSRETECSRVGKQSFIITLGCNSVLIQFATPNDFCSFYNILKTCRGHTLERSVFSERTEESSAVQYFQFYGYLSQQQNMMQDYVRTGTYQRAILQNHTDFKDKIVLDVGCGSGILSFFAAQAGARKIYAVEASTMAQHAEVLVKSNNLTDRIVVIPGKVEEVSLPEQVDIIISEPMGYMLFNERMLESYLHAKKYLKPSGNMFPTIGDVHLAPFTDEQLYMEQFTKANFWYQPSFHGVDLSALRGAAVDEYFRQPVVDTFDIRILMAKSVKYTVNFLEAKEGDLHRIEIPFKFHMLHSGLVHGLAFWFDVAFIGSIMTVWLSTAPTEPLTHWYQVRCLFQSPLFAKAGDTLSGTCLLIANKRQSYDISIVAQVDQTGSKSSNLLDLKNPFFRYTGTTPSPPPGSHYTSPSENMWNTGSTYNLSSGMAVAGMPTAYDLSSVIASGSSVGHNNLIPLANTGIVNHTHSRMGSIMSTGIVQGSSGAQGSGGGSTSAHYAVNSQFTMGGPAISMASPMSIPTNTMHYGS

Key:
[1] = molecular target: T1, RB (Homo sapiens, UniProt P06400); assay: In vitro binding assay with GST-RB; details: S35-labeled in vitro translated protein
T1 construct: coding region of RB cDNA was subcloned into pGEX-6P (Amersham/Pharmacia) for generation of GST-RB; made in house
T1 sequence (P06400 1-928): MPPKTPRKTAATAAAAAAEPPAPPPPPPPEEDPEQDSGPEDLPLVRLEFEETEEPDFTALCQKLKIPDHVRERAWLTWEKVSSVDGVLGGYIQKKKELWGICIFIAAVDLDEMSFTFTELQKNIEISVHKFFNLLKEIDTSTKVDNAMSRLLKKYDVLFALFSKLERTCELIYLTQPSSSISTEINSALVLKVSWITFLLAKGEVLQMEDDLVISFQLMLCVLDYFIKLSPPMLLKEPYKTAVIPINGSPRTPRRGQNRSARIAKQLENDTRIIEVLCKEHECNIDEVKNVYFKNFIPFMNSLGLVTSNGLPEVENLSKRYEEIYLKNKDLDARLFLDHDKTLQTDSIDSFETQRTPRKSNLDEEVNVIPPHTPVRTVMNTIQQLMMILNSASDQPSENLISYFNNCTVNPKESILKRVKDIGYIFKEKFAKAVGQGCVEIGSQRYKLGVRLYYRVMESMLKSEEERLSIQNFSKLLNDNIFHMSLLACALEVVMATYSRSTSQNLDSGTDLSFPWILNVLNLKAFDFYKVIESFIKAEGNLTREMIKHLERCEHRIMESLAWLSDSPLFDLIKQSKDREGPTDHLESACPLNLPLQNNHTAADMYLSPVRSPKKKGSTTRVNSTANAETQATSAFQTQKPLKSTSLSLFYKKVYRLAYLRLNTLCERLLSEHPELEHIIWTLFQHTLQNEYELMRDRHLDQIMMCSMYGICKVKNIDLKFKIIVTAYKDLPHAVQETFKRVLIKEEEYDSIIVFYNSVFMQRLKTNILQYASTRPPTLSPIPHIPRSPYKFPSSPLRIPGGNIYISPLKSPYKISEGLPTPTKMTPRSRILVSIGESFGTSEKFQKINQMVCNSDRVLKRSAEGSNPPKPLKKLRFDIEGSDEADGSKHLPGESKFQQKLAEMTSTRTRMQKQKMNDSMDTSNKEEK
Procedure: The crude cell lysate of the GST-fusion proteins was prepared and purified according to the manufacture's protocol (Amersham/Pharmacia). [^35S]-methionine-labeled protein was produced by in vitro transcription/translation using the TNT T7-coupled reticulocyte lysate system (Promega). [^35S]-methionine-labeled protein and GST-fusion protein bound to glutathione sepharose 4B beads were incubated in 500 μl of HNE buffer (50 mM Hepes, pH 7.8, 150 mM NaCl, 1 mM EDTA, 1 mM DTT, 1% NP40, and 1× protease inhibitor mix (Complete: Roche)) at 4° C. for 1 hour. Beads were washed four times with HNE buffer, and then analyzed on an SDS-PAGE gradient gel (4-15%). For the detection of endogenous PRMT-2 interaction with RB, MEFs were lysed with WCL buffer (50 mM Hepes, pH 7.8, 400 mM NaCl, 2 mM EDTA, 1 mM DTT, 0.2% NP40, 10% Glycerol, 20 mM α-glycerophosphate, 5 mM NaF, 0.1 mM NaVO4, and 1× protease inhibitor mix). Then, 1 mg of whole cell extracts were incubated with HNE buffer without DTT and 3 μg of antibodies as indicated. The immune complexes were isolated using protein G beads, and washed four times with HNE buffer. The precipitated protein was boiled with SDS-loading buffer and resolved on SDS-PAGE. For immunoprecipitation of HA-tagged protein, transfected cells were lysed with RIPA buffer (phosphate buffer saline containing 1% NP40, 0.5% sodium deoxycholate, 0.1% SDS, and 1× Complete), and 100 μg of whole cell lysates were immunoprecipitated with anti-HA antibodies and washed in RIPA buffer. Western blot analysis was performed as described in Tanner et al. (1998). Circ Res, 82, 396-403.
To test whether PRMT family members interact with RB, S^35-labeled in vitro translated PRMT1, PRMT2, PRMT3, and PRMT4 (CARM1) were incubated with GST-RB fusion proteins or control GST, and co-precipitated labeled proteins were resolved by SDS-PAGE. […] An equal amount of GST-RB and GST were loaded in each lane, verified by Coomassie staining (FIG. 8B).

[2] = test system: E2F1; assay: E2F reporter assay (GAL4-E2F1 activator, luciferase); type: cell-based; details: U2OS cells, in the presence of the E2F1 activator
Procedure: HeLa cells, U2OS cells, and Saos2 cells were seeded at a density of 5×10^4 per well in 24-well plates. Cells were transfected 24 hours later with the indicated plasmid and with 20 ng of pRL-TK (Promega) as an internal control to normalize transfection efficiency. The amount of CMV promoter in the transfection was kept constant using empty vector. Cells were harvested at 30 or 36 hour after transfection and luciferase activity was analyzed by Dual-Luciferase Reporter Assay System (Promega). Luciferase activity was measured as a ratio of Firefly to Renilla. To study endogenous E2F activity in MEFs, PRMT-2^+/+ or PRMT-2^−/− MEFs were seeded at a density of 3×10^5 per well in 6-well plates. Cells were transfected 24 hours later with 3 μg of E2F4B-Luc and 10 ng of pRL-TK plasmid. Cells were harvested at 36 hour after transfection and analyzed for luciferase activity as described above.

[3] = test system: HIV-1 LTR; assay: HIV-1 reporter transcription, transient co-transfection; type: cell-based, human; details: 293T cells, co-transfection
Procedure: Cell culture, transfection, and reporter gene assays. The E1A-transformed, human kidney cell line, 293, and NIH-3T3 cells were maintained in Dulbecco's Modified Eagle Medium (DMEM) supplemented with 10% fetal calf serum and penicillin-streptomycin at 37° C. in 5% carbon dioxide in tissue culture grade Petri dishes. PRMT-2−/− mouse embryo fibroblasts (MEFs) and wild type MEFs were prepared from day 13.5 embryos and maintained in DMEM supplemented with 10% fetal calf serum. MEFs at passage 4 were used in this experiment. Lipofectamine Plus™ reagent (Boehringer Mannheim) was used to transfect both 293 and NIH-3T3 cells according to directions from the manufacturer. […] TNF-α stimulation of cells was done using recombinant TNF-α (200 U/ml) for 12 hours. Transfected cells were harvested at 36 hours, and CAT activity was assayed on 10 to 100 μg of protein from whole cell extracts. CAT assays were performed essentially as described in Leung, K. & Nabel, G. J. Nature 333, 776-778 (1988). To analyze the κB-reporter activity in MEFs, cells were transfected with the reporter (2×kB-Luc) and PRL-TK vector (Promega) using FuGENE6 transfection reagent (Roche). Luciferase activity was analyzed by Dual-Luciferase Reporter Assay System (Promega).
To determine whether PRMT-1, 2 or 3 could affect NF-κB function, their potential to regulate effects on transcription of the human immunodeficiency virus type 1 (HIV-1) was examined. Transient co-transfections were performed using PRMT1, PRMT2 and PRMT3 expression plasmids with an HIV-1 reporter plasmid in the human renal epithelial cell line, 293T.
To determine its dependence on NF-κB, human immunodeficiency virus type 1 (HIV-1) reporter plasmids with wild-type (WT) or mutant (ΔκB) sites were co-transfected transiently with control or PRMT2 expression plasmids in the different cell lines. […] The KB effect was dose-dependent and was also observed with other inducers of NF-κB, including phorbol […] (PMA) (FIG. 2B, right panel).

Molecule	binding to RB [1]	E2F1 activity [2]	effect on transcription of the HIV-1 reporter plasmid [3]
B1	did not bind GST-RB	failed to repress E2F1 activity	
B2	do not bind RB		failed to inhibit NF-κB transcription specifically
